Columns and labels:
[1] = molecular target: GST-CagA-1CM^E (Helicobacter pylori strain 26695) (UniProt P55980); experiment: pull-down; quantitative GST pull-down: GST-CagA on beads in a range of concentrations, fixed low concentration of PAR1b (39–364)-FLAG, GST-binding buffer with 0.01% Triton-X, 20 min at 4 °C, unbound PAR1b in the supernatant quantified, binding to GST control subtracted; apparent KD
[2] = molecular target: GST-CagA-1CM^W1 (Helicobacter pylori strain 26695) (UniProt P55980); experiment: as above
[3] = molecular target: GST-CagA-1CM^W2 (Helicobacter pylori strain 26695) (UniProt P55980); experiment: as above
[4] = molecular target: CagA-C1164S (Helicobacter pylori strain 26695) (UniProt P55980); experiment: AUC; sedimentation velocity, 20 °C, 10 mM HEPES pH 7.7, 150 mM NaCl, 1 mM EDTA; 5.5 μM CagA-CS, 11 μM PAR1b (39–364), alone or mixed; c(s) by SEDFIT

| Substance | Kd [1] | Kd [2] | Kd [3] | stoichiometry N (PAR1b per CagA) [4] |
| --- | --- | --- | --- | --- |
| PAR1b (39–364)-FLAG (from UniProt Q7KZI7-14 39-364) (domain or fragment) | 46.4 nM | 90.3 nM | 106 nM | – |
| PAR1b (39–364) (from UniProt Q7KZI7-14 39-364) (domain or fragment) | – | – | – | 2 |
